B1: SEQ ID NO:61 (protein)
chain: MADLYENPMGLMGFEFIEFASPTPGTLEPIFEIMGFTKVATHRSKNVHLYRQGEINLILNNEPNSIASYFAAEHGPSVCGMAFRVKDSQKAYNRALELGAQPIHIDTGPMELNLPAIKGIGGAPLYLIDRFGEGSSIYDIDFVYLEGVERNPVGAGLKVIDHLTHNVYRGRMVYWANFYEKLFNFREARYFDIKGEYTGLTSKAMSAPDGMIKIPLNEESSKGAGQIEEFLMQFNGEGIQHVAFLTDDLVKTWDALKKIGMRFLTAPGDEYYEMLEGRLPDHGEPVDQLQARGILLDGSSVEGDKRLLLQIFSEQLMGPVFFEFIQRKGDDGFGPDSFKVLFEQMERDQVRRGVLTAD
modifications: mutant HPPD polypeptide
B2: SEQ ID NO:1: reference wild-type Pseudomonas fluorescens HPPD polypeptide (protein, listed as Pseudomonas fluorescens)
chain: MADLYENPMGLMGFEFIEFASPTPGTLEPIFEIMGFTKVATHRSKNVHLYRQGEINLILNNEPNSIASYFAAEHGPSVCGMAFRVKDSQKAYNRALELGAQPIHIDTGPMELNLPAIKGIGGAPLYLIDRFGEGSSIYDIDFVYLEGVERNPVGAGLKVIDHLTHNVYRGRMVYWANFYEKLFNFREARYFDIKGEYTGLTSKAMSAPDGMIRIPLNEESSKGAGQIEEFLMQFNGEGIQHVAFLTDDLVKTWDALKKIGMRFMTAPPDTYYEMLEGRLPDHGEPVDQLQARGILLDGSSVEGDKRLLLQIFSETLMGPVFFEFIQRKGDDGFGEGNFKALFESIERDQVRRGVLTAD
modifications: 4-hydroxyphenylpyruvate dioxygenase (HPPD; Pseudomonas fluorescens) (1)..(358)
B3: SEQ ID NO:35 (protein)
chain: MADLYENPMGLMGFEFIEFASPTPGTLEPIFEIMGFTKVATHRSKNVHLYRQGEINLILNNEPNSIASYFAAEHGPSVCGMAFRVKDSQKAYNRALELGAQPIHIDTGPMELNLPAIKGIGGAPLYLIDRFGEGSSIYDIDFVYLEGVERNPVGAGLKVIDHLTHNVYRGRMVYWANFYEKLFNFREARYFDIKGEYTGLTSKAMSAPDGMIRIPLNEESSKGAGQIEEFLMQFNGEGIQHVAFLTDDLVKTWDALKKIGMRFMTAPGDEYYEMLEGRLPDHGEPVDQLQARGILLDGSSVEGDKRLLLQIFSEKLMGPVFFEFIQRKGDDGFGPHSFKVLFEQMERDQVRRGVLTAD
modifications: mutant HPPD polypeptide
B4: SEQ ID NO:57 (protein)
chain: MADLYENPMGLMGFEFIEFASPTPGTLEPIFEIMGFTKVATHRSKNVHLYRQGEINLILNNEPNSIASYFAAEHGPSVCGMAFRVKDSQKAYNRALELGAQPIHIDTGPMELNLPAIKGIGGAPLYLIDRFGEGSSIYDIDFVYLEGVERNPVGAGLKVIDHLTHNVYRGRMVYWANFYEKLFNFREARYFDIKGEYTGLTSKAMSAPDGMIKIPLNEESSKGAGQIEEFLMQFNGEGIQHVAFLTDDLVKTWDALKKIGMRFMTAPGDEYYEMLEGRLPDHGEPVDQLQARGILLDGSSVEGDKRLLLQIFSEQLMGPVFFEFIQRKGDDGFGPHSFKVLFEQMERDQVRRGVLTAD
modifications: mutant HPPD polypeptide
B5: SEQ ID NO:26 (protein)
chain: MADLYENPMGLMGFEFIEFASPTPGTLEPIFEIMGFTKVATHRSKNVHLYRQGEINLILNNEPNSIASYFAAEHGPSVCGMAFRVKDSQKAYNRALELGAQPIHIDTGPMELNLPAIKGIGGAPLYLIDRFGEGSSIYDIDFVYLEGVERNPVGAGLKVIDHLTHNVYRGRMVYWANFYEKLFNFREARYFDIKGEYTGLTSKAMSAPDGMIRIPLNEESSKGAGQIEEFLMQFNGEGIQHVAFLTDDLVKTWDALKKIGMRFLTAPGDEYYEMLEGRLPDHGEPVDQLQARGILLDGSSVEGDKRLLLQIFSEQLMGPVFFEFIQRKGDDGFGPHSFKVLFESIERDQVRRGVLTAD
modifications: mutant HPPD polypeptide
B6: SEQ ID NO:2 (protein)
chain: MADLYENPMGLMGFEFIEFASPTPGTLEPIFEIMGFTKVATHRSKNVHLYRQGEINLILNNEPNSIASYFAAEHGPSVCGMAFRVKDSQKAYNRALELGAQPIHIDTGPMELNLPAIKGIGGAPLYLIDRFGEGSSIYDIDFVYLEGVERNPVGAGLKVIDHLTHNVYRGRMVYWANFYEKLFNFREARYFDIKGEYTGLTSKAMSAPDGMIRIPLNEESSKGAGQIEEFLMQFNGEGIQHVAFLTDDLVKTWDALKKIGMRFMTAPPDTYYEMLEGRLPDHGEPVDQLQARGILLDGSSVEGDKRLLLQIFSETLMGPVFFEFIQRKGDDGFGPWNFAQLFESIERDQVRRGVLTAD
modifications: mutant HPPD polypeptide
B7: SEQ ID NO:38 (protein)
chain: MADLYENPMGLMGFEFIEFASPTPGTLEPIFEIMGFTKVATHRSKNVHLYRQGEINLILNNEPNSIASYFAAEHGPSVCGMAFRVKDSQKAYNRALELGAQPIHIDTGPMELNLPAIKGIGGAPLYLIDRFGEGSSIYDIDFVYLEGVERNPVGAGLKVIDHLTHNVYRGRMVYWANFYEKLFNFREARYFDIKGEYTGLTSKAMSAPDGMIRIPLNEESSKGAGQIEEFLMQFNGEGIQHVAFLTDDLVKTWDALKKIGMRFMTAPGDEYYEMLEGRLPDHGEPVDQLQARGILLDGSSVEGDKRLLLQIFSETLMGPVFFEFIQRKGDDGFGPHSFKVLFEQMERDQVRRGVLTAD
modifications: mutant HPPD polypeptide
B8: SEQ ID NO:36 (protein)
chain: MADLYENPMGLMGFEFIEFASPTPGTLEPIFEIMGFTKVATHRSKNVHLYRQGEINLILNNEPNSIASYFAAEHGPSVCGMAFRVKDSQKAYNRALELGAQPIHIDTGPMELNLPAIKGIGGAPLYLIDRFGEGSSIYDIDFVYLEGVERNPVGAGLKVIDHLTHNVYRGRMVYWANFYEKLFNFREARYFDIKGEYTGLTSKAMSAPDGMIRIPLNEESSKGAGQIEEFLMQFNGEGIQHVAFLTDDLVKTWDALKKIGMRFMTAPGDEYYEMLEGRLPDHGEPVDQLQARGILLDGSSVEGDKRLLLQIFSEQLMGPVFFEFIQRKGDDGFGPHSFKVLFEQMERDQVRRGVLTAD
modifications: mutant HPPD polypeptide
B9: SEQ ID NO:28 (protein)
chain: MADLYENPMGLMGFEFIEFASPTPGTLEPIFEIMGFTKVATHRSKNVHLYRQGEINLILNNEPNSIASYFAAEHGPSVCGMAFRVKDSQKAYNRALELGAQPIHIDTGPMELNLPAIKGIGGAPLYLIDRFGEGSSIYDIDFVYLEGVERNPVGAGLKVIDHLTHNVYRGRMVYWANFYEKLFNFREARYFDIKGEYTGLTSKAMSAPDGMIRIPLNEESSKGAGQIEEFLMQFNGEGIQHVAFLTDDLVKTWDALKKIGMRFLTAPGDEYYEMLEGRLPDHGEPVDQLQARGILLDGSSVEGDKRLLLQIFSETLMGPVFFEFIQRKGDDGFGPHSFKVLFESIERDQVRRGVLTAD
modifications: mutant HPPD polypeptide

Test system: Pseudomonas fluorescens HPPD polypeptide (wild-type and mutants)
Experiment: Coupled HPPD activity assay: turnover and residual turnover in crude HPPD polypeptide extracts with and without Cmpd. 1
Type: biochemical
Conditions: for turnover and residual turnover, comparison in words: 100 μM Cmpd. 1, Table 3; for Residual turnover [%]: 100 μM Cmpd. 1, normalised to turnover without inhibitor; for Turnover: absence of Cmpd. 1; for Turnover / Residual turnover: changes in absorbance (OD) at 320 nm in the coupled assay, 30 min; for Residual turnover: presence of 100 μM Cmpd. 1
Experimental: For the generation of crude HPPD polypeptide extract in micro titer plates (MTP) for the determination of residual activity in inhibition assays, cells were grown in 40 or 150 μl LB medium containing 1% Glucose (Merck, Darmstadt, Germany) and 100 μg/ml ampicillin in a standard 96 well plate (Thermo Fisher Scientific, Waltham, USA) incubated for about 18 h in a humidity incubator at 37° C. 30 μl of this starter culture were added to 600 μl LB medium containing 100 μg/ml ampicillin and 150 mM Hepes (Merck, Darmstadt, Germany) as inoculum for the expression culture in 96 well plates (2 ml deep wells; HJ Bioanalytik, Erkelenz, Germany). The plates were sealed by an aluminium foil, and cells were incubated for 5 h at 37° C. on a plate shaker at 750 rpm. The expression was induced by addition of IPTG in a final concentration of 1 mM followed by further sealed incubation for about 18 h at 30° C. on a plate shaker at 750 rpm.
Cells were harvested by centrifugation at 4° C., 2500 g for 15 min discarding the supernatant. Cell pellets were stored at −80° C. and lysed in 250 μl 1× BugBuster® (Merck, Darmstadt, Germany) in 140 mM Tris (pH 7.8), with 1:25000 diluted BNase® (Qiagen, Hilden, Germany) by incubation of the resuspended cells for 30 min at 4° C. and 1000 rpm. Lysates were clarified by centrifugation for 15 min at 4° C., 2500 g, and 150 μl supernatant were transferred in standard 96 well plate (Thermo Fisher Scientific, Waltham, USA) for subsequent testing in quadruplets.
The activity of HPPD polypeptides was determined in absence or presence of HPPD inhibitors using the coupled HPPD activity assay (FIG. 1).
For the determination of the residual activity, the apparent kinetic constant (kapp) of the determined substrate conversion was measured as kinetic changes in absorbance (OD) at 320 nm in a coupled assay, in that homogentisate (HGA) formed by HPPD from HPP is directly converted into the well absorbing molecule maleylacetoacetate (MAA) by a second enzyme homogentisate dioxygenase (HGD), applied in excess uniformly in all assays (see FIG. 1). The measurements were performed in 384 micro titer plates (Greiner Bio-One GmbH, Frickenhausen, Germany) by plate readers (Tecan infinite M1000 or M1000PRO, Tecan, Männedorf, Switzerland). The kcat/kM ratio of an enzymatic activity is proportional to the apparent kinetic constant kapp and is proportional to kcat/kM*[E] ([E]=enzyme concentration). […] As both kapp measurements in the presence and absence of inhibitor were performed by use of the identical enzyme sample, crude or purified, and thereby at the same enzyme concentration, the enzyme concentration eliminates from the calculation of residual activity and the ratio of both kapp directly indicates the change of kM due to the inhibition.
The assay solution used for determination of residual activities in raw HPPD polypeptide samples was composed by 200 mM sodium phosphate (Merck, Darmstadt, Germany, pH 7.0), 5 mM MgCl2 (Merck, Darmstadt, Germany), 20 mM ascorbate (Sigma-Aldrich, St. Louis, USA), 1 mM DTT (Sigma-Aldrich, St. Louis, USA), 0.1% Pluronic F-68 (Sigma-Aldrich, St. Louis, USA), 40 μM FeSO4 (Sigma-Aldrich, St. […] Louis, USA) and equilibrated for 20 min on ice.

Row | Molecule | turnover and residual turnover, comparison in words | Residual turnover [%] | Turnover | Residual turnover | time-course of inhibition, inhibitor characteristic (HPPD inhibitor herbicides, FIG. 2: 200 μM HPP, 0, 4 or 13 μM Cmpd. 1)
1 | B1 | decreases the turnover and residual turnover | 56 | 0.206 | 0.116 | –
2 | B2 | – | – | – | 0.042 | slow and tight binding inhibitor
3 | B3 | increases significantly the turnover and residual turnover | 59 | 0.27 | 0.158 | –
4 | B4 | increases significantly the absolute turnover | 68 | 0.34 | 0.232 | –
5 | B5 | significant improvement regarding residual turnover | 60 | 0.235 | 0.14 | –
6 | B6 | – | – | 0.092 | 0.041 | –
7 | B7 | does not show a significant turnover | – | 0.008 | 0.007 | –
8 | B8 | increases significantly the turnover and residual turnover | 66 | 0.244 | 0.162 | –
9 | B9 | decreases the turnover and residual turnover | 50 | 0.203 | 0.102 | –
